# Experimental data from the nanobody polyreactivity screen of Harvey et al. (2022).
# Experiment: yeast display, Sf9 membrane polyspecificity reagent, FACS + sequencing; frameworks hold sequencing errors
# Procedure, shortened: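 Galactose-induced (36–48 hours) yeast carrying a synthetic nanobody display library were exposed to 10% biotinylated, detergent-solubilized Sf9 membrane reagent at 4 °C for 1 hour. FACS followed streptavidin microbead enrichment, using low and high (top ~1%) gates for expression (anti-HA) and reagent binding (streptavidin). Colony PCR, MiSeq 2 × 250 sequencing and CDR-length filtering followed. Labels for polyreactivity reflect the gate of origin.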
sequence,measurement,value
QVQREESGGGLVQAGGSLRLSCAASGRIMNINAMGWYRPATGKERERVAAITWRGGRTFYADSVKGRFTISRDNAKNTVYLQMNSLKAEDTAVYYCAASSNSWYPTGYYWGQGTQVTVSS,polyreactivity (PSR sort gate),high polyreactivity
QVQREESGGGLVQAGGSLRLSCAASGSIFVGNAMGWYRQAPGKESELVAAITASGTSTYYADSVKGRFTISRDNAKNTVYLQMNSLKPEDTAVYYCNAVQLVYDQYRYDYWGQGTQVTVSS,polyreactivity (PSR sort gate),high polyreactivity
QVQRVDSGGGLVQAGGRLRLSCAASGLNFYLYAMGLYRQAPRKEREFVAAITTSGGSTHYADSVKGRFTISRDNAKNTVYLQMNSLKPEDTAVYYCAADDYFHGPGMEFDFLGQGTQVTVSS,polyreactivity (PSR sort gate),low polyreactivity
QVQRVDSGGGLVQAGGSLRLSCAASGITFTLYDMGWYRQAPGKERELVASITSDGSTDYADSVKGRFTISRDNAKNTVYLQMISLKPEDTAVYYCNARVTYSWYRFGRSGDDSWGQGTQVTVSS,polyreactivity (PSR sort gate),low polyreactivity
QVQRVDSGGGLVQAGGSLRLSCAASGRILRDYDRGWYRQAPGKDRELVAAINWSDGSTYYADSVKGRFTISRDNAKNTVYLQMNSLKPEDTAVYYCAASRWRPLERGTTWLHDYWGQGTQVTVSS,polyreactivity (PSR sort gate),low polyreactivity
QVQRVDSGGGLVQAGGSLRLSCAASGSIFEWYDMVWYRQAPGTERELVAAITTGGITNYSDSVKARFTISRDNAKNTVYLQMNSLKPEDTAVYYCNADFTVEFDYWGQGTQVTVSS,polyreactivity (PSR sort gate),low polyreactivity
QVQRVESGGGIVQAGGSLRLSCAASGFIFRRYAMGWYRQAPGKERELVAAISSSGGRTTYADSVKGRFTISRDNAKNTVYLQMNSLKPEDTAVYYFNADLWPGNHDGYWGQGTQVSVSS,polyreactivity (PSR sort gate),low polyreactivity
QVQRVESGGGLVHAAGSRRLSCAASGSIFWPYAMGWYRLAPGKEREFVAPISSSGSRTHYADSVKGRFTISRDTAKNTVYLQMNSLKPEDTAVYYCATDSRVITWYGGVEFDYWGQGTQVTVSS,polyreactivity (PSR sort gate),low polyreactivity
QVQRVESGGGLVQAGGRLRLICAAAGYTFDYYAMGWYRQAPGKERELVAAISRSGTRTYYADSVKGRFTISRDNAKNTVYLQMYSLKPEVNAVYYLKKAYYLYAGDYWGQGTQVTVSS,polyreactivity (PSR sort gate),high polyreactivity
QVQRVESGGGLVQAGGRLRLSCAASGRTFETNAMGWYRQAPGKERELVAAISRSGGSTRYADSVKGRFTISRDNAKNTVYLQMNSLKPEDTAVYYCAVRVGLGGGYGGQGTQVTVSS,polyreactivity (PSR sort gate),high polyreactivity
QVQRVESGGGLVQAGGRLRLSCAASGSIFASYDMGWYRQSRGKERELVARITFNAGSTYYADSVKGRFTISRDNAKNTVYLQMNSLKPEDTAVYYCIADYPWEYDYWGEGTQVTVSS,polyreactivity (PSR sort gate),low polyreactivity
QVQRVESGGGLVQAGGRLRLSCAASGSIFFSKAMGWYRPAPGKERELVAGIRSGGITNYADSVKGRFTISRDNAKNTVSLQMNSLKPEDTAVYYCAKLKDHGRYAYAFDYWGQGTQVTVSS,polyreactivity (PSR sort gate),low polyreactivity
QVQRVESGGGLVQAGGRLRLSCAASGSTFLYNAMGWYRQAPGKERELVATISSGGGSTNYADSVKGRFTNSRDNAKNTVYLPMNSLKPEDTAVYYCAVEGYDSYKDDYWGQGTQVTVSS,polyreactivity (PSR sort gate),low polyreactivity
QVQRVESGGGLVQAGGRLRLSSAASGSIFGRYGMGWYRQAPGKDRELVAAITSGTRRNYADSVKGRFTISRDNAKNTVYLQMNSLKPEDTAVYYCNAVRLRGNYEYGYWGLGTQVTVSS,polyreactivity (PSR sort gate),low polyreactivity
QVQRVESGGGLVQAGGRLRVSCAASGRTFYIYAMGWYRQAPGKERELVADITSGGSTYYADSVKGRFTISRDNAKNTVYLQMNCLKPEDTAVYYCNAGPHWFYRYGRYDYWGQGTQVTVSS,polyreactivity (PSR sort gate),low polyreactivity
QVQRVESGGGLVQAGGSLRLSCAASGFIFYFYAMRWYRQAPGNERELVAAITWSGTDTYYADSVKGRFTISRDNAKNTVYLQMNSLKPEDTAVYYCARSEHSLVSIKVDYWGQGTQVTVSS,polyreactivity (PSR sort gate),low polyreactivity
QVQRVESGGGLVQAGGSLRLSCAASGFTFSLYGMGWYRPARGKGRELVAAIRSGGSTNYADSVKGRYTISRDNAKNTVYLQMNSLKPEDTAVYYCATDIHSGHNNRDKHDYDYWGQGTQETVSS,polyreactivity (PSR sort gate),low polyreactivity
QVQRVESGGGLVQAGGSLRLSCAASGIIFALYAMGWYRQAPGKERELVAAISTSGGRTYYADSVKGRFTISRDNAKNTVYFQMNSLKPEDTAVYYCAAGYPYWYHSRLAFDYWGQGTQVTVSS,polyreactivity (PSR sort gate),high polyreactivity
QVQRVESGGGLVQAGGSLRLSCAASGITFKYYGMGWYRRAPGKERELVAAITRSGGSTSYADSVKGRFTISRDNAKNTVYLQMHSLKPEDTAVYYCAAERYVLTWLGIERYYWGQGTQVTVSS,polyreactivity (PSR sort gate),high polyreactivity
QVQRVESGGGLVQAGGSLRLSCAASGKIFGQYAMGRYRQAPGKEREFVAAITWSGGSTYYADSVKGRFTISRDNAKNTVYLQMNSLKPEDTAVYYCAADYGKTHRYDYDYWGQGTQVTVSS,polyreactivity (PSR sort gate),low polyreactivity
QVQRVESGGGLVQAGGSLRLSCAASGLTFEYNAMGWYRQAPGKEREFVATISNGGITSYADSVKGRFTISRDNAKNTVYLQMNSLKPEDTGVYYCAASYADSPTTDQLWLEYDSWGQGTQVTVSS,polyreactivity (PSR sort gate),low polyreactivity
QVQRVESGGGLVQAGGSLRLSCAASGLTFRYYAVGWYRQAPGKERELVAAITSNGGRTYYADSVKGRFTISRDNAKNTVYLQMNSLKPEDTAVYYCAAVYLYYGGVDYWGQGTQVTVSS,polyreactivity (PSR sort gate),high polyreactivity
QVQRVESGGGLVQAGGSLRLSCAASGLTFVYYAMGWYRQAPGKERELVAAISESGTSTYYADSVKGRFTISRDNAKNTVYLQMNSLKPEDTAVYYCAAKDSYYEMDYWGQGTQVTVSS,polyreactivity (PSR sort gate),high polyreactivity
QVQRVESGGGLVQAGGSLRLSCAASGRIFQIYAMGWYRQAPGKERELVAAIRSGSNTNYADSVKGRFTISRDNAKNTVYLQMNSLKPEDTAVYYCNALYTSLRKDNYWGQGTQVTVST,polyreactivity (PSR sort gate),low polyreactivity
QVQRVESGGGLVQAGGSLRLSCAASGRIFWYYAMGWYRQAPGTERQLVAAITSGGRTNFADSVKGRFTISSDNAKNSVYLQMNSLKPEDTAVYYCAAGYYNYLYRLRDQDFDYWGQGTQVTVSS,polyreactivity (PSR sort gate),high polyreactivity
QVQRVESGGGLVQAGGSLRLSCAASGRISSWNAMGWYRQAPGKERELVATISRRGGSTYYADSVKGRFTISRDNAKNTVYFQMNSLKQEDTAVYYCAKSSWTYGAYNYWGQGTQVTVSS,polyreactivity (PSR sort gate),high polyreactivity
QVQRVESGGGLVQAGGSLRLSCAASGRTFDGYAMGWYRQAPGKDRELVAAISKRGGSTYYADSVKGRFTISRDNAKNTVYLQMHSLKPEDTAVYYCNTRYFGDQTWVGGDSWGQGTQVTVSS,polyreactivity (PSR sort gate),high polyreactivity
QVQRVESGGGLVQAGGSLRLSCAASGRTFRSYAMGWYRQAPGKERQFVAAISRSGASTRYADSVKGRFTISRDNAKNTVYFQMNSLKPEDTAVYYCAAVWPDVRGYDYWGQGTQVTVSS,polyreactivity (PSR sort gate),high polyreactivity
QVQRVESGGGLVQAGGSLRLSCAASGSIFPIYAMGWYRQAPGKERELVAGITWSGGSTYYADSVKGRFTISRDNAKNTVYLQMNSLKPEDTAVYYCAAERWHPYDYWGQGTQVTVSS,polyreactivity (PSR sort gate),low polyreactivity
QVQRVESGGGLVQAGGSLRLSCAASGSIFPYYAMGWYRQAPGKETELVATITYRGGSTNYADSVKGRFTISRDNAKNTVYLQMNSLKPEDTAVYSCAAYGYVLASPYPYSFVKLGYCGQGTQVTVSS,polyreactivity (PSR sort gate),low polyreactivity
QVQRVESGGGLVQAGGSLRLSCAASGSIFYSYAMGWYRQAPGKARELVATISWSGGRTNYADSVQGRFTISRDNAKNTVYLQMNSLKPEDTAVYYCAADIPPWGGDYWGQGTQVTVSS,polyreactivity (PSR sort gate),low polyreactivity
QVQRVESGGGLVQAGGSLRLSCAASGSIRGYAMGWYRQAPVKERELVAAISWRGGSTYYADSVKGRFTISRDNAKNTVYLQMNSLKPEDTAVYYCATKGYPHVSTWMDSWGQGTQVTVSS,polyreactivity (PSR sort gate),low polyreactivity
QVQRVESGGGLVQAGGSLRLSCAASGSTFPPYGMGWSRQAPGKERELVAAITWRGGRTYYADSVKGRFTISRDNAKNTVYLQMNSLKPEDTAVYYCAASYGPRTGYATYRYASSRYNYWGQGTQVTVSS,polyreactivity (PSR sort gate),high polyreactivity
QVQRVESGGGLVQAGGSLRLSCAASGSTFVNYVMGLYRQAPGKERELVAAISWSGGRTYYADSMKGRFTISRDNAKNTVYLQMNSLKPEDTAVYYCNAVYAGFLRVRYDYWGQGTQVTVSS,polyreactivity (PSR sort gate),high polyreactivity
QVQRVESGGGLVQAGGSLRLSCAASGSTFYTNAMGWYRQAPGKERELVASITGGGSTYYADSVKGRFTISRDNAKNTVYLQMNSLKPEDTAVYYCAADNFGGGWEFDSWGQGTQVTVSS,polyreactivity (PSR sort gate),low polyreactivity
QVQRVESGGGLVQAGGSLRLSCAASGSTLRYYAMGWYRQAPGKERELVAGIRYRGGSTSYADSVKGRFTISRDNAKNTVYLQMNSLKPEDTAVYYCATGIYRARTSSFRMGYWGQGTQVTVSS,polyreactivity (PSR sort gate),low polyreactivity
QVQRVESGGGLVQAGGSLRLSCAASGTIFYHNAMGWYRQAPGIERELVAAITGSGGSTYYADSVKGRFTISRDNAKNTVYLQMNSLKPEDTAVYYCAADGYTKWRISWGYDYWGQGTQVTVCS,polyreactivity (PSR sort gate),low polyreactivity
QVQRVESGGGLVQAGGSLRLSCAGCGRIFHYYAMGWYRQAPGKEMELVAAITSSGGSTYYADSVKGRFTISRDHPKNTVYLQMNSLKPEDTAVYYCAAGLIVGRFLRYDYWGQGTQVTVSS,polyreactivity (PSR sort gate),high polyreactivity
QVQRVESGGGLVQAGGSLRLSSAASGSTFQEYAMGWYSQAPGKERELVASIRWSGGRTYYADSVKGRFTISRDQAKNTVELQMKSLKPEDTAVYYCNKDYYITLHESDGNGGEMDYWGQGTQVTVSS,polyreactivity (PSR sort gate),low polyreactivity
QVQRVESGGGLVQAGVSLRLSCAASGITFVPYAMGWYRQAPGKERELVAAISSSGGSTYYADSVKGRFTISRDNAKNTVYLQMNSLKPEDTAVYFCNVPTHSYIGMDYWGQGTQVTVSS,polyreactivity (PSR sort gate),low polyreactivity
QVQRVESGGGLVQEAGSLRLSCAASGSILGINVMGWYRHDHGKQRDLVAAISRSGGTTYYADSVKGRFTISRDNGKNTVYLQMNSLKPEDTAVYSCAVYNRPYKEYGYNYCGQGTQVTVSS,polyreactivity (PSR sort gate),high polyreactivity
QVQRVESGRGLVQAGGRLRLSCAASGFIFDRNVMGLYRQAPGNERELVAAISSSGGSTYYADSVKGRFTISRDNAKNTVYLQMNSLKPEDTAVYYCNRLAYRNMDYWGQGTQVTVSS,polyreactivity (PSR sort gate),high polyreactivity
QVQRVESGRGLVQAGGSLRLRCAASGNIFPWSAMGWSRQAPGKERELVAAITSGGGSTYYGDSVKGRFTISRDNAKNTVYLQMNRLKPEDTAVYYCNAESAFVSYYSEDYDYWGQGTQVTVSS,polyreactivity (PSR sort gate),low polyreactivity
